Experimental data as given in patent publication US7772181B2, “Personal care compositions comprising modified variant Bowman Birk Protease Inhibitors” (Danisco US Inc., priority 2008, dated 2010).
Residue numbers refer to the chain shown, from its start. Numbers in names are those of the source. Marks after values point to notes of the source that are not given here.

Experiments:
[1] = molecular target: T1, bovine pancreatic trypsin (Bos taurus, UniProt P00760); test: Shake flask screen: trypsin inhibition after growth, 2-mercaptoethanol activation and acid/heat treatment; type: biochemical; details: for BBIt-AV yield after acid/heat treatment relative to unmodified BBIt-AV: activated with 2-mercaptoethanol
T1 construct: purchased Worthington (Worthington Biochemical Corp.)
T1 sequence (P00760 24-246): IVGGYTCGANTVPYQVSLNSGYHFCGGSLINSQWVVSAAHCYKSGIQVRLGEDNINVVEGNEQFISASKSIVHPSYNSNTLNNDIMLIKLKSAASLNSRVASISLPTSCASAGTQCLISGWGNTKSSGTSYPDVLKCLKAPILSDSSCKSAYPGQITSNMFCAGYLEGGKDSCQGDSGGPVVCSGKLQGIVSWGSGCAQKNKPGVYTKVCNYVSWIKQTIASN
Protocol: To increase expression, the gene copy of the selected clones was amplified by sequentially streaking colonies on Luria agar plates with 25 μg/ml chloramphenicol until the growth rate was similar to growth on Luria agar plates without chloramphenicol. Cultures of the selected variants and controls were grown in 3 ml Luria broth with 25 μg/ml chloramphenicol in 15 ml tubes for ˜10 h. These cultures (30 μl) were then used to inoculate 30 ml of MBD medium in 250 ml baffled shake flasks and grown at 37° C. and 225 rpm for ˜60 h.
For selection of the variants with the best yields, the culture broths were processed as follows. The broth was first activated by mixing 20 ml of broth with 20 ml of 0.25 M glycine buffer (pH 9.3) and the pH was adjusted to 9.0 with 50% NaOH. Then, 2-mercaptoethanol was added to the diluted cultures to a final concentration of 2 mM and the cultures were incubated overnight at room temperature with gentle shaking. The BBIt-AV moiety was then cleaved from the fusion protein by acid/heat treatment, which was accomplished by first adjusting the pH of the activated broth to pH 1.9-2.0 with sulfuric acid, and followed by incubation at 60° C. for 16 hours, with shaking. The BBIt-AV-BCE fusion protein and the BCE catalytic domain are not soluble at pH 2, whereas the free BBI species is soluble. After the cleavage reaction, the insoluble material was removed by centrifugation (5 min. at 3,000 rpm) and the supernatant was analyzed for trypsin inhibitory activity as described above. The BBI activity was also determined for the starting material and for the samples taken after activation. The BCE activity of the starting material was also determined as described above. The BBIt-AV:BCE activity ratios were then calculated for each step in process. The modified BBIt-AVs produced at the highest yields following the acid/heat treatment were selected for further study.

[2] = molecular target: T1, bovine pancreatic trypsin; test: BBIt-AV:BCE activity ratio, microtiter plate screens (primary, quadruplicate secondary); type: biochemical; details: single substitution in BBIt-AV, in the presence of reducing agent
Protocol: The cultures in each master plate were thawed and a pin replicator was used to inoculate a new sterile microtiter plate containing 150 μl of Luria broth with 5 μg/ml chloramphenicol in each well. The plates were grown for ˜10 hrs in a humidified and aerated box as described above. For controls, the cultures in two wells were replaced with BBI and BBI-AV cultures that had been grown concurrently in 15 ml culture tubes (5 ml of Luria broth with 5 μg/ml chloramphenicol). After the cultures were grown, the plate was used to inoculate two duplicate 96-well filter plates (Millipore, MSGV2210) containing 150 μl of MBD medium (Vogtentanz et al., 2007) with 5 μg/ml chloramphenicol in each well by using a pin replicator. The duplicate plates were grown for ˜14 hours (as above, with plastic spacers placed between the stacked plates to allow for efficient air flow around the plates) and then 2-mecaptoethanol was added to each well in one of the plates to a final concentration of 2 mM. The plates were then grown for an additional ˜46 hours. The 96-well filter plates containing the culture broth (with or without added 2-mecaptoethanol) were then assayed for BBI and BCE activity.
Libraries were analyzed using dilutions of cultures grown in 96-well plates. Typically, the culture broth from each well was diluted (200 fold) in Assay Buffer (100 mM Tris pH 8.6, 0.005% Tween 80) and transferred to a second microtiter plate (CoStar 9017, Corning, Inc., Corning, N.Y.). Then, 20 μl of the diluted samples were transferred to a third microtiter plate. A standard curve was created by adding 20, 10, 5 or 2.5 μl of the diluted sBBI (SEQ ID NO:13) control culture to empty wells. Then, 80 μL of 50 ng/ml trypsin (bovine pancreatic trypsin, Worthington Biochemical Corp., Lakewood, N.J.) (prepared from a 1 mg/mL stock solution diluted into Assay Buffer) was added to each well of the plate. The reactions were mixed and incubated 15 min at room temperature. After the incubation, 100 μL of 0.5 mg/ml trypsin substrate (succinyl-Ala-Ala-Pro-Arg-para-nitroanilide, Bachem Bioscience, Inc., King of Prussia, Pa.), diluted in Assay Buffer from a 100 mg/ml solution in DMSO, was added to each well, mixed, and the absorbance at 405 nm was monitored for 15 min, with 1 time point recorded every 12 sec using a Spectra Max 250 (Molecular Devices). The data points were used to determine the rate for each reaction. The standard curve was generated by plotting the reaction rate versus the BBI volume and was fitted to a four-parameter equation. All data fitting was done using software supplied by the manufacturer (Molecular Devices Corp., Sunnyvale, Calif.). The activity of each BBIt-AV variant was calculated from the standard curve. Thus, the activities of all modified variant proteins were determined relative to the activity in the sBBI control (BBI-WT) culture.
The concentration of BCE was determined by an activity assay using purified BCE as a standard as described above and by (Vogtentanz et al. 2007). For the analysis of libraries grown in 96-well microtiter plates, 20 μl of culture broth were transferred to each well of a new microtiter plate. A standard curve was created by adding 20, 10, 5 or 2.5 μl of the diluted BBI-WT control culture to these empty wells. Then, 180 μl of the BCE substrate (0.25 μg/ml in Assay Buffer), 4-nitrophenyl β-D-cellobioside (Sigma, St. Louis, Mo.), was added to the plate. The plate was mixed and the absorbance at 405 nm monitored for 15 min, with 1 time point recorded every 12 s using a Spectra Max 250 (Molecular Devices Corp., Sunnyvale, Calif.). The data points were used to determine the rate for each reaction. The standard curve was generated by plotting rate versus culture volume and was fit to a quadratic curve. The BCE concentration in each variant culture was determined relative to the standard control culture. […]

B1: M27A: BBIt-AV (SEQ ID NO:187) with single substitution M27A (protein)
chain: DDESSKPCCDQCACTKSNPPQCRCSDARLNSCHSACKSCACYNLYGWTCFCVDITDFCYEPCKPSE
modifications: synthetic BBIt-AV sequence
yield after acid/heat treatment, better than V52L [1]: about 40% | activation level (BBIt-AV:BCE activity ratio after reducing agent) ([1]; single substitutions in BBIt-AV): activate to similar levels

B2: I54T: BBIt-AV (SEQ ID NO:187) with single substitution I54T (protein)
chain: B1 chain with A27M, I54T
modifications: synthetic BBIt-AV sequence
relative activity of the amino acid substitution (BBI:BCE activity ratio vs BBIt-AV), amino acid present in BBIsb3-AV [2]: T (−)****

B3: S65E: BBIt-AV (SEQ ID NO:187) with single substitution S65E (protein)
chain: B1 chain with A27M, S65E
modifications: synthetic BBIt-AV sequence
BBIt-AV yield after acid/heat treatment relative to unmodified BBIt-AV [1]: improved yields after acid/heat treatment

B4: T55N: BBIt-AV (SEQ ID NO:187) with single substitution T55N (protein)
chain: B1 chain with A27M, T55N
modifications: synthetic BBIt-AV sequence
relative activity of the amino acid substitution (BBI:BCE activity ratio vs BBIt-AV), amino acid present in BBIsb3-AV [2]: N (+/−)

B5: S38N: BBIt-AV (SEQ ID NO:187) with single substitution S38N (protein)
chain: B1 chain with A27M, S38N
modifications: synthetic BBIt-AV sequence
BBIt-AV yield after acid/heat treatment relative to unmodified BBIt-AV [1]: improved yields after acid/heat treatment

B6: S5P: BBIt-AV (SEQ ID NO:187) with single substitution S5P (protein)
chain: B1 chain with S5P, A27M
modifications: synthetic BBIt-AV sequence
BBIt-AV yield after acid/heat treatment relative to unmodified BBIt-AV [1]: improved yields after acid/heat treatment

B7: I54M: BBIt-AV (SEQ ID NO:187) with single substitution I54M (protein)
chain: B1 chain with A27M, I54M
modifications: synthetic BBIt-AV sequence
relative activity of the amino acid substitution (BBI:BCE activity ratio vs BBIt-AV), amino acid present in BBIdb-AV [2]: M (−)

B8: Q11G: BBIt-AV (SEQ ID NO:187) with single substitution Q11G (protein)
chain: B1 chain with Q11G, A27M
modifications: synthetic BBIt-AV sequence
BBIt-AV yield after acid/heat treatment relative to unmodified BBIt-AV [1]: improved yields after acid/heat treatment

B9: S4V: BBIt-AV (SEQ ID NO:187) with single substitution S4V (protein)
chain: B1 chain with S4V, A27M
modifications: synthetic BBIt-AV sequence
BBIt-AV yield after acid/heat treatment relative to unmodified BBIt-AV [1]: improved yields after acid/heat treatment

B10: T55K: BBIt-AV (SEQ ID NO:187) with single substitution T55K (protein)
chain: B1 chain with A27M, T55K
modifications: synthetic BBIt-AV sequence
relative activity of the amino acid substitution (BBI:BCE activity ratio vs BBIt-AV), amino acid present in BBIdb-AV [2]: K (−)

B11: E60K: BBIt-AV (SEQ ID NO:187) with single substitution E60K (protein)
chain: B1 chain with A27M, E60K
modifications: synthetic BBIt-AV sequence
relative activity of the amino acid substitution (BBI:BCE activity ratio vs BBIt-AV), amino acid present in BBIsb3-AV [2]: K (+/−) | relative activity of the amino acid substitution (BBI:BCE activity ratio vs BBIt-AV), amino acid present in BBItc-AV [2]: K (+/−)

B12: BBIt-AV-A13I-M27R-L29P-A40K-F50T-V52A: modified variant BBPI, SEQ ID NO:619 (protein)
chain: DPDDESSKPCCDQCICTKSNPPQCRCSDRRPNSCHSACKSCKCYNLYGWTCTCADITDFCYEPCKPSE
modifications: synthetic BBPI variant
yield after acid/heat treatment relative to BBIt-AV-A13I-L29P-A40K-F50T-V52A (SEQ ID NO:601) [1]: somewhat less

B13: BBIt-AV-A13I-L29P-S31A-A40K-F50T-V52A: modified variant BBPI, SEQ ID NO:621 (protein)
chain: B12 chain with R29M, S33A
modifications: synthetic BBPI variant
yield after acid/heat treatment relative to BBIt-AV-A13I-L29P-A40K-F50T-V52A (SEQ ID NO:601) [1]: somewhat less

B14: BBIt-AV-S4V-A13I-L29P-A40K-F50T-V52A: modified variant BBPI, SEQ ID NO:612 (protein)
chain: B12 chain with S6V, R29M
modifications: synthetic BBPI variant
yield after acid/heat treatment relative to BBIt-AV-A13I-L29P-A40K-F50T-V52A (SEQ ID NO:601) [1]: significantly lower yields

B15: BBIt-AV-A13I-L29P-A40K-F50T-V52T: modified variant BBPI, SEQ ID NO:625 (protein)
chain: B12 chain with R29M, A54T
modifications: synthetic BBPI variant
yield after acid/heat treatment relative to BBIt-AV-A13I-L29P-A40K-F50T-V52A (SEQ ID NO:601) [1]: somewhat less

B16: 4D13BBIt-AV: BBIt-AV with 13 amino acid 4D13 insert (SEQ ID NO:389) at the N-terminus, SEQ ID NO:390 (protein)
chain: DDEPSKPCCDPDPDDESSKPCCDQCACTKSNPPQCRCSDMRLNSCHSACKSCACYNLYGWTCFCVDITDFCYEPCKPSE
modifications: synthetic BBI sequence
BBIt-AV:BCE activity ratio after acid/heat treatment ([1]; relative to unmodified BBIt-AV): higher
